Assay type in all cases: biochemical, Metallosphaera sedula
Substrate in data set [1]: O=CCCC(=O)O
In words: purified protein. To be noted: NADPH 0.5 mM, MgCl2 5 mM, DTT 5 mM, pH 6.5, 65°C.

Substrate in data set [2]: CC(C)(COP(=O)(O)OP(=O)(O)OC[C@H]1O[C@@H](n2cnc3c(N)ncnc32)[C@H](O)[C@@H]1OP(=O)(O)O)[C@@H](O)C(=O)NCCC(=O)NCCSC(=O)CCC(=O)O
In words: NADPH consumption, spectrophotometric. Particulars: NADPH 0.5 mM, MgCl2 5 mM, DTT 4 mM, pH 6.5, 65°C.

Substrate in data set [3]: NC(=O)C1=CN([C@@H]2O[C@H](COP(=O)(O)OP(=O)(O)OC[C@H]3O[C@@H](n4cnc5c(N)ncnc54)[C@H](OP(=O)(O)O)[C@@H]3O)[C@@H](O)[C@H]2O)C=CC1
Description: NADPH consumption, spectrophotometric. To be noted: succinyl-CoA as substrate, pH 6.5, 65°C, varied: cofactor.

Data on two proteins can be found in article PMC5433351.

The term Km denotes the substrate concentration at which the rate is half of its maximum. In general, Vmax refers to the top rate of the reaction or transport when substrate is in excess. For orientation: kcat/Km means the second-order rate constant that governs catalysis at low substrate concentration.

B1: SSR, succinic semialdehyde reductase (Metallosphaera sedula DSM 5348) (protein)
chain: MKAAVLHTYKEPLSIEDVNISQPKAGEVKIKVKATGLCHSDVNVFEGKTPVPPPVVAGHEISGIVEEVGPGVTRVKPGDRVISAFIHPCGKCGNCVAGKENLCETFSQVRLKGVMPDGTSRLSKDGKEIRTFLGGGFAEYAIVGENALTRVPEDMDLEKVAVLGCAGLTGYGAISSSKIEPGDTVAVIGVGGVGLSTIQLLRASGAGRIIAVGTKKWKLDRAMELGATDVVNSKEIDPVKAIKEITGGGPQVVIEAGGNEDTIHMALDSVRIGGKVVLVGLPPATAMIPIRVASIVRGGIEVVGNYGGRPRVDMPKLLELVRQGRYDPSRLVTGRFRLEEINEAVKMLEEGEAIRSLIIP
For B1, in data set [1], the Km is 27 µM, the maximal velocity (Vmax) stood at 683 µmol/min/mg and the catalytic efficiency (kcat/Km) came out at 1.6e+07 M⁻¹ s⁻¹.

B2: MCR, malonyl-CoA/succinyl-CoA reductase (Metallosphaera sedula DSM 5348) (protein)
chain: MRRTLKAAILGATGLVGIEYVRMLADHPYIKPTYLAGKGSVGKPYGEIVRWQTVGNVPKEVANQEVKPTDPKLMDDVDIIFSPLPQGAAGPVEEQFAKLGFNVISNSPDHRFDMDVPMIIPEVNPHTVTLIDEQRKRRDWKGFIVTTPLCTAQGAAIPLTPIYQNFKMSGVMITTMQSLSGAGYPGIASLDIVDNALPLGDGYDAKTVKEITRILSEVKRNVQEPGVNEITLDATTHRIATIHGHYEVAYVTFKEDTDVRKVMESMESFKGEPQDLKLPTAPEKPIIVTTQDARPQVFFDRWAGNPPGMSVVVGRLKQVNPRTIRFVSLIHNTVRGAAGGGVLTAELLVEKGYIDKR
As for B2, in data set [2], the Michaelis-Menten constant (Km) came to 191 µM, the Vmax stood at 15.9 µmol/min/mg and the kcat/Km amounted to 54500 M⁻¹ s⁻¹. Further, in data set [3], the Km is 79.2 µM, the Vmax turned out to be 13.1 µmol/min/mg and the kcat/Km worked out at 109000 M⁻¹ s⁻¹.
